Test results: US20200317768A1 (published 2020)

Experiments:
Assay in all cases: SPR; KD of SG1 / KD of variant;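 also: relative to parent M103205H795-SG1 carrying the SG1 human heavy chain constant region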
[1] = target: T1, human FcγRIIaH extracellular domain, His-tagged (human, UniProt P12318 34-217)
T1 construct: also called human FcγRIIa (type H); FcgRIIaH
T1 sequence: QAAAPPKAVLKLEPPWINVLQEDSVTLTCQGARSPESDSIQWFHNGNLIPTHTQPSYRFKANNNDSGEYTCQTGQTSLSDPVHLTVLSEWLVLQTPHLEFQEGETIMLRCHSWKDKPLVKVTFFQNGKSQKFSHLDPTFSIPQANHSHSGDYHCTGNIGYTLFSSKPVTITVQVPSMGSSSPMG

[2] = target: T2, cynomolgus monkey FcγRIIIaS extracellular domain, His-tagged (cynomolgus monkey, UniProt Q8SPW2 21-206 at identity 1.00))
T2 construct: also called cyno FcγRIIIaS; cynoFcγRIIIaS
T2 chain: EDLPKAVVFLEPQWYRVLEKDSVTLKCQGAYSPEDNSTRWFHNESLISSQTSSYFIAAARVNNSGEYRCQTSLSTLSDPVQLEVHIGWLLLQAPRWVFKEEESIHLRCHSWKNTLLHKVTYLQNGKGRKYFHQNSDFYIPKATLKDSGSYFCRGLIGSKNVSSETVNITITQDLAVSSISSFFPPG

[3] = target: T3, cynomolgus monkey FcγRIIa3 extracellular domain, His-tagged (cynomolgus monkey)
T3 construct: also called cyno FcγRIIa3; cynoFcgRIIa3
T3 chain: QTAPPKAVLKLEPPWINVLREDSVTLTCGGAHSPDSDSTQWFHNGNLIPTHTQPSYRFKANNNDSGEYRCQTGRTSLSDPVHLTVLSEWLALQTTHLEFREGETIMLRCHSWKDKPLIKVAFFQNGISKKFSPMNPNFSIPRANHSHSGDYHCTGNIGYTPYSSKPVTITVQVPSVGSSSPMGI

[4] = target: T4, cynomolgus monkey FcγRIIa2 extracellular domain, His-tagged (cynomolgus monkey)
T4 construct: also called cyno FcγRIIa2; cynoFcgRIIa2
T4 chain: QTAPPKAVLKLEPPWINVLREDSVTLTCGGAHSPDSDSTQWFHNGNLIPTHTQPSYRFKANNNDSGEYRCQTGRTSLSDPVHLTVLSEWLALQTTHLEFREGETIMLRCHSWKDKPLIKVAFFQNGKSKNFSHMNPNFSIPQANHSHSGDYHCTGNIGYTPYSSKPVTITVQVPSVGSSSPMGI

[5] = target: T5, cynomolgus monkey FcγRIIa1 extracellular domain, His-tagged (cynomolgus monkey)
T5 construct: also called cyno FcγRIIa1; cynoFcgRIIa1
T5 chain: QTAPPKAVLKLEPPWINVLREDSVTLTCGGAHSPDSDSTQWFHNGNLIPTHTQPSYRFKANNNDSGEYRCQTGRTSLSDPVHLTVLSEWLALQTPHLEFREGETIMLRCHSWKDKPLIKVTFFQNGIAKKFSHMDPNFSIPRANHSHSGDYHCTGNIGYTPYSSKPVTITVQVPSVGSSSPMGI

[6] = target: T6, human FcγRIIb extracellular domain, His-tagged (human, UniProt P31994 43-217)
T6 construct: also called FcgRIIb (human)
T6 sequence: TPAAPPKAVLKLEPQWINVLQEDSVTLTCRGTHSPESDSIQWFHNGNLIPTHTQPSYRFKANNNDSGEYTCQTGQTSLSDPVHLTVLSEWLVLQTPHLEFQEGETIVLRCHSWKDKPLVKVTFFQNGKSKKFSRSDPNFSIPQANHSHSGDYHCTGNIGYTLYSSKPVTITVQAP

[7] = target: T7, human FcγRIIIaV extracellular domain, His-tagged (human, UniProt P08637 17-208)
T7 construct: also called FcgRIIIaV

[8] = target: T8, human FcγRIIaR extracellular domain, His-tagged (human, UniProt P12318 34-217)
T8 construct: also called human FcγRIIa (type R); FcgRIIaR
T8 chain: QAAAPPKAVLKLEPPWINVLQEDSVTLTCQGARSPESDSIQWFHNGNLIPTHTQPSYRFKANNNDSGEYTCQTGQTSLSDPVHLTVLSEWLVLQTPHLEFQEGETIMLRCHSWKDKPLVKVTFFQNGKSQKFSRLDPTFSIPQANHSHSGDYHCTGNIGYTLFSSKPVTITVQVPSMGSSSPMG

[9] = target: T9, cynomolgus monkey FcγRIIb extracellular domain, His-tagged (cynomolgus monkey)
T9 construct: also called cyno FcγRIIb; cynoFcγRIIb
T9 chain: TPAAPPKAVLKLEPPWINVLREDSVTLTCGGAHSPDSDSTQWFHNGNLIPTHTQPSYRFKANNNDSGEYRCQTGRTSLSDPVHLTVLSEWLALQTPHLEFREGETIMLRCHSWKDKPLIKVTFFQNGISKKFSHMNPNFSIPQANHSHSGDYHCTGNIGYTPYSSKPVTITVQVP

T7 sequence (P08637 17-208 F176V): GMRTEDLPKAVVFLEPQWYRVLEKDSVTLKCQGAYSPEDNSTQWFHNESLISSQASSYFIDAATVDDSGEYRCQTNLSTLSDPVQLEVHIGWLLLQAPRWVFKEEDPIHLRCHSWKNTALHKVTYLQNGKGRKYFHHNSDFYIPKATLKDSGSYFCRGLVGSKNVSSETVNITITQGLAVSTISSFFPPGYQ

KD fold (SG1 = 1) [1]: 1.4 fold
KD fold (SG1 = 1) [2]: 0.6 fold
KD fold (SG1 = 1) [3]: 0.7 fold
KD fold (SG1 = 1) [4]: 1.7 fold
KD fold (SG1 = 1) [5]: 1.3 fold
KD fold (SG1 = 1) [6]: 0.7 fold
KD fold (SG1 = 1) [7]: 0.37 fold
KD fold (SG1 = 1) [8]: 0.8 fold
KD fold (SG1 = 1) [9]: 0.8 fold
B1: M103205H795-MY196/M103202L889-SK1 (antibody, human IgG1, kappa)
heavy: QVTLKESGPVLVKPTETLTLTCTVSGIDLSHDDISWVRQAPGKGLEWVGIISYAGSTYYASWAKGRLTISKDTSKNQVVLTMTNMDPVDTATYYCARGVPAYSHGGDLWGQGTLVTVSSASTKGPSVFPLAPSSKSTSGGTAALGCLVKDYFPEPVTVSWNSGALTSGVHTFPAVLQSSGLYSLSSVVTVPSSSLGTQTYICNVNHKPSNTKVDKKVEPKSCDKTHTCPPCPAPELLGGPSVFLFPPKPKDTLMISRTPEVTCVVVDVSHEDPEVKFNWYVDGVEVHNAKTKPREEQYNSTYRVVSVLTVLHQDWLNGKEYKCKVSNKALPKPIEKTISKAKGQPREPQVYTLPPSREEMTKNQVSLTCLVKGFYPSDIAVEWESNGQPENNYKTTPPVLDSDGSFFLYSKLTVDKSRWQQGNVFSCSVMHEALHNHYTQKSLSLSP
light: DIVMTQSPATLSLSPGERATLSCTSSQSVYHANWLSWFQQKPGQPPKLLIYWASTLAYGVPSRFSGSGSGTDFTLTISSLQPEDAATYYCAGGYGGGRYAFGQGTKVEIKRTVAAPSVFIFPPSDEQLKSGTASVVCLLNNFYPREAKVQWKVDNALQSGNSQESVTEQDSKDSTYSLSSTLTLSKADYEKHKVYACEVTHQGLSSPVTKSFNRGEC
notes: Substitution put into M103205H795-SG1
